From publication PMC11098746 (2024)

Key:
Experiment in all cases: AVEXIS screen signal:noise (double-corrected)
ADP368 = target: T1, ADP368
T1 chain: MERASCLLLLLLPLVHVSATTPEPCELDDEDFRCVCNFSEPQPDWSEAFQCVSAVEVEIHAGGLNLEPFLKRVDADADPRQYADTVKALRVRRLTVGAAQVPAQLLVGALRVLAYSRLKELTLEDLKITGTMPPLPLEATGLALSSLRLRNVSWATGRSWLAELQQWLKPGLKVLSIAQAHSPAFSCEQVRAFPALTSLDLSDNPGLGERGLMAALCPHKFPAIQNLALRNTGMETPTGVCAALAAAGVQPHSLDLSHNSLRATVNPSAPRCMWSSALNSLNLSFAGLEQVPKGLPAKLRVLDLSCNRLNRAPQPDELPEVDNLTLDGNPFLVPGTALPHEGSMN

ADP315 = target: T2, ADP315
T2 chain: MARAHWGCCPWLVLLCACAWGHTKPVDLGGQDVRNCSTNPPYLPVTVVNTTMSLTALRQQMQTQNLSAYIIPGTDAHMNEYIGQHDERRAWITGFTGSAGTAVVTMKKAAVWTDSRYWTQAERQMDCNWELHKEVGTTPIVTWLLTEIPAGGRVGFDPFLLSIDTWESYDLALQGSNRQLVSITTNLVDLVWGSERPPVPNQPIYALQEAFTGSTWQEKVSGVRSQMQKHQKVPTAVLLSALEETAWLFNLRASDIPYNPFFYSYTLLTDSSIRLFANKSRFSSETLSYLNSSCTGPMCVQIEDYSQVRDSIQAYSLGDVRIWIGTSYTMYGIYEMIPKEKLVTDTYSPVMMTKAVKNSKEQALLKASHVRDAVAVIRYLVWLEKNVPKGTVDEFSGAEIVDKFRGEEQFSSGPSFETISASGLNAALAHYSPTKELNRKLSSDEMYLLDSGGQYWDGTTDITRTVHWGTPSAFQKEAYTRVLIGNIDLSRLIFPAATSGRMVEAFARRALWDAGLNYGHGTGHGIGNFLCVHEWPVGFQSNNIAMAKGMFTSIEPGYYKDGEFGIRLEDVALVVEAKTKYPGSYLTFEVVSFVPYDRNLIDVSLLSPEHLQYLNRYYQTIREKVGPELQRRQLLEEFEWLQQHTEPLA

ADP323 = target: ADP323
ADP366 = target: T3, ADP366
T3 chain: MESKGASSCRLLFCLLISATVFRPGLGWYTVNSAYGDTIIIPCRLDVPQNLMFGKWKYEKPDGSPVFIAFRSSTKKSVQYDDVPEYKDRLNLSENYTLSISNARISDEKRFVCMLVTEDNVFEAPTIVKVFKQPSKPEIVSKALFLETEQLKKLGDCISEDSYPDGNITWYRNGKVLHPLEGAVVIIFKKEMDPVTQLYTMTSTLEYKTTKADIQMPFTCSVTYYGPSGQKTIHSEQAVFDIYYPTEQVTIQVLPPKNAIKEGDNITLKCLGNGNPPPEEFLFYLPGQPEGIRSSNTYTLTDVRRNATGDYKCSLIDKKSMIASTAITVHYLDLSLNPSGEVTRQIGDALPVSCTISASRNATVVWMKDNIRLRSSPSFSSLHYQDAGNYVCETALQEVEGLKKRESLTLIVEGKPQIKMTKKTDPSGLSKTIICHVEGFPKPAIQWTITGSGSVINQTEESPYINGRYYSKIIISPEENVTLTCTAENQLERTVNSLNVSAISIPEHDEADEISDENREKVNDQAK

ADP158 = target: ADP158
ADP144 = target: T4, ADP144
T4 chain: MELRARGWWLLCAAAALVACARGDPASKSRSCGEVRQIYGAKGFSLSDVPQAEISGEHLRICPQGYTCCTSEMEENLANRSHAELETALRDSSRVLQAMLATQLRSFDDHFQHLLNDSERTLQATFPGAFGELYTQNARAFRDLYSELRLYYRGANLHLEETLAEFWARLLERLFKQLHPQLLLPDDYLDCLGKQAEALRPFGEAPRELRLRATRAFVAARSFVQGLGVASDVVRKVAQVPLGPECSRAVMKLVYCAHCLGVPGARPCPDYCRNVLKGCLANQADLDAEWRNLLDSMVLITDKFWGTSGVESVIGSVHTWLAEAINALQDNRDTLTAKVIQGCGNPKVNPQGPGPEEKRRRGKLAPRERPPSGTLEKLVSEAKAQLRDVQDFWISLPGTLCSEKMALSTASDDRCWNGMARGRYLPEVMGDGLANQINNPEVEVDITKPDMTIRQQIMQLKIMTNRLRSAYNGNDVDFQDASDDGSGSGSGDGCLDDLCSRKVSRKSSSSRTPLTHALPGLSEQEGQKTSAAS

ADP103 = target: T5, ADP103
T5 chain: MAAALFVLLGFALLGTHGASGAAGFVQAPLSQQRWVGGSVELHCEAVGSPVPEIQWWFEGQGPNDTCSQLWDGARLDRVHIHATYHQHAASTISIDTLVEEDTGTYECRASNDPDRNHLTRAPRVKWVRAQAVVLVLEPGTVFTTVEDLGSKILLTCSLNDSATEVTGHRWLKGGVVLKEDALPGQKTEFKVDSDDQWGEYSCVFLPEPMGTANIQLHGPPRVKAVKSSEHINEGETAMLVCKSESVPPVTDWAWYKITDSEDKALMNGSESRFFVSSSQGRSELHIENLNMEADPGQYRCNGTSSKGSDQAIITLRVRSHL

ADP390 = target: ADP390

B1: ADP247 (protein)
chain: GIISGRINIAAEFHINIFVKDYFKKKKLTFVNFVSLCPKGFNIENNKCIPCPIGLYYSNSKSINQCIPCENYRKHSTTLYNSAKSKTECLCKPGYFLKDKRCVKCVAGFYKDQIGNFKCQGTCENTKMSIEVGAKNYEELKCTCKDGYFTEKKKKECIPCPFGNYCIYNPKVKYKADIIRCKNNKLTLHRGSKSPNDCLCSQGYYHDYKMDECELCNYDQYKSHISNDPCVPFISKSLVNQEYLINEPYFQYTNIYIKQTSNIIFAPKKGSKMFHEATLCETGYSYSMNKAICSICRYNNYCLGLDHSSIICPKNSITIKLKSVSALDCLCIKGYGRIIINTNQAFTISCIPCPYNTFQPHHSYGKCIPCPPHTFTKITGATSITECIPKMGYYNIAFEYIYEYSKQQMLNSIPHFIQYYHYFLKNQYEHFA
modifications: bait human Fc-tagged dimer; N-glycosylation sequons mutated in Plasmodium baits
binding score (ADP368): 5.45
binding score (ADP315): 5.78
binding score (ADP323): 5.73
binding score (ADP366): 5.26

B2: ADP167 (protein)
chain: EFKRKQKVEINSLQTNKNNDNIREEKIKGDVESQPDVDGDTCVIFSSSEGNSRNCWCPRGYILCSEEDVLDVQGKLNEIKNKHERSLVTPLWMKRLCDNSNDVGFKSMSVVIDYELAVLCKDGSNKDYADFEIIGASGYITGEEMIEEQKRNPWYVPRKCTVNNFYLCRKVENDNVNCAYTPWSDWSACKNNAQKRYRKVRRSNQNNENFCLWNDKIVPRNIMEQTRSC
modifications: bait human Fc-tagged dimer; N-glycosylation sequons mutated in Plasmodium baits
binding score (ADP158): 19.1

B3: ADP180 (protein)
chain: RGNQISKCVFYDKRNKDLKQVFYVPTNDVNMYKETIRKLLSREISLLEEPLNENSDSHNMANKKNVANFEEIKKNDENNNRKRKEMEEKLKYIEKYRNYAKGVLKNVEFKCENVDDLKSKVKCNLCVYTEIVNNKHIRQGQIIQIFMNECMYGFYYYDNINQYTQNNEYNNKALKDYNSAQKLDDIYFNIAKDISEGNVNGINFFKQQSSKYHPVCYVTE
modifications: bait human Fc-tagged dimer; N-glycosylation sequons mutated in Plasmodium baits
binding score (ADP144): 20
binding score (ADP103): 9.97

B4: ADP253 (protein)
chain: ANAFYVDNGQEMLIKEKEHYSSDSEHHKEESASIGNLNVFFPAENYHFSTYMGFDRRSFLPSNEIELEKMIGANFANEVKNYCSRQNVAQKIGDYLNIAFEYSRALEELRSEMILDFNKRKHLTNNADDTILHMIENAEKRKNDPNYKEAYENKDYANNANIFMNEYSNPLSTKYNKILKEYLCHLFVNNPGTKPLERLYYNSLALGELVEPIRNKFKSLASSTIDFNYEIHMASASNIYLLAHFLVLSLAYLSYNEYFTTGTKSFYSLPTILTANSDNSFFMLNEMCNIHYNPNKNFKKDITFIPIESRPKRTTTFYGERRLTCDLLELVLNAIMLININEINNVFSNNNVDGYENSLSFSHNAIRIFSKVCPKINNDNVLKCEFEESSLYNPKIIKNDASEKSSQKNLKKAFDLLRTYAEIEGHSAEGSTSPYYVSLILDDMKYNDFYKYTLWYEPRELIYGDIRGMQMKKKKKTKYIYNDFMKKSTQLKKKLIKNDLKYNLKSKGLVFLYAMIDKYGSILNKAQKAKVQFLNSASSIRYYLYLNKVIFKSAKTYLDIMKRVLEELQTSTNTPLKFLVRGNYIENINNIARNDNMFYANLFVLTALSRRDPVKDYYNDKRKMLSATLAEKFANSASMLIPHKLRKLVVSMKKGLLKKKLLTSLAKVKLLQHIPAHMLENIASSIRFTTHTIATMQIIQNAKYMSKHNFAQYDSKGMLARQIFTKGGFAEYADNLMAKWFSKGFEEYKREQIENFKMENSIDSELKDSEREDENDASEESAKKKLQDLQLEEREKMKKENSLLFNQADKWDQFINKELVRALGLWLEFNDNPANAASFVYKVVEDSKHLLENNIDNNIIFSRTVKPTKQTAFRRFFNKILSLGNMLLRKPSFRVEHALWFGATIDIKKAFILLEKVSELHKMLNNQDESWLINEAFIEIVDHVVDLSTYKHVREPFGVARNPGMMAINPKYAELSHENRLRELQNSMCADHCSSVWKVISSFALHHLKNPDSLHTYESKFSKNSFGNKIDDKDFVHNFKMILGGDAVLHYFDNLLPKTMKKDLKAMKYGVSLTSAYSLKLTKIIFSQMQLPYLSQMFYMQAPYFGHFIGKWQKKRQQSRLKEIMSFMTLGSLSAYTLFSAMDITQQAKDIGAGPVASCFTTRMSPPQQICLNSVVNAALSTSTQSAMKCVFSV
modifications: bait human Fc-tagged dimer; N-glycosylation sequons mutated in Plasmodium baits
binding score (ADP390): 7.2
